Laboratory results: patent US6939707B2, “Isolated nucleic acid molecules which encode GAGE genes and uses thereof” (Ludwig Institute for Cancer Research, priority 1993, dated 2005)

B1: GAGE-1: cDNA coding for GAGE tumor rejection antigen precursor, SEQ ID NO: 1 (nucleic acid)
DNA: CTGCCGTCCGGACTCTTTTTCCTCTACTGAGATTCATCTGTGTGAAATATGAGTTGGCGAGGAAGATCGACCTATCGGCCTAGACCAAGACGCTACGTAGAGCCTCCTGAAATGATTGGGCCTATGCGGCCCGAGCAGTTCAGTGATGAAGTGGAACCAGCAACACCTGAAGAAGGGGAACCAGCAACTCAACGTCAGGATCCTGCAGCTGCTCAGGAGGGAGAGGATGAGGGAGCATCTGCAGGTCAAGGGCCGAAGCCTGAAGCTGATAGCCAGGAACAGGGTCACCCACAGACTGGGTGTGAGTGTGAAGATGGTCCTGATGGGCAGGAGATGGACCCGCCAAATCCAGAGGAGGTGAAAACGCCTGAAGAAGAGATGAGGTCTCACTATGTTGCCCAGACTGGGATTCTCTGGCTTTTAATGAACAATTGCTTCTTAAATCTTTCCCCACGGAAACCTTGAGTGACTGAAATATCAAATGGCGAGAGACCGTTTAGTTCCTATCATCTGTGGCATGTGAAGGGCAATCACAGTGTTAAAAGAAGACATGCTGAAATGTTGCAGGCTGCTCCTATGTTGGAAAATTCTTCATTGAAGTTCTCCCAATAAAGCTTTACAGCCTTCTGCAAAGAAAAAAAAAAAA
B2: GAGE-4: cDNA highly related to GAGE, from MZ2-MEL.43 library (nucleic acid)
DNA: CGCCAGGGAGCTGTGAGGCAGTGCTGTGTGGTTCCTGCCGTCCGGACTCTTTTTCCTCTACTGAGATTCATCTGTGTGAAATATGAGTTGGCGAGGAAGATCGACCTATTATTGGCCTAGACCAAGGCGCTATGTACAGCCTCCTGAAATGATTGGGCCTATGCGGCCCGAGCAGTTCAGTGATGAAGTGGAACCAGCAACACCTGAAGAAGGGGAACCAGCAACTCAACGTCAGGATCCTGCAGCTGCTCAGGAGGGAGAGGATGAGGGAGCATCTGCAGGTCAAGGGCCGAAGCCTGAAGCTGATAGCCAGGAACAGGGTCACCCACAGACTGGGTGTGAGTGTGAAGATGGTCCTGATGGGCAGGAGATGGACCCGCCAAATCCAGAGGAGGTGAAAACGCCTGAAGAAGGTGAAAAGCAATCACAGTGTTAAAAGAAGGCACGTTGAAATGATGCAGGCTGCTCCTATGTTGGAAATTTGTTCATTAAAATTCTCCCAATAAAGCTTTACAGCCTTCTGCAAAAAAAAAAAAAAAA
B3: GAGE-6: cDNA highly related to GAGE, from MZ2-MEL.43 library (nucleic acid)
DNA: GCCAGGGAGCTGTGAGGCAGTGCTGTGTGGTTCCTGCCGTCCGGACTCTTTTTCCTCTACTGAGATTCATCTGTGTGAAATATGAGTTGGCGAGGAAGATCGACCTATTATTGGCCTAGACCAAGGCGCTATGTACAGCCTCCTGAAGTGATTGGGCCTATGCGGCCCGAGCAGTTCAGTGATGAAGTGGAACCAGCAACACCTGAAGAAGGGGAACCAGCAACTCAACGTCAGGATCCTGCAGCTGCTCAGGAGGGAGAGGATGAGGGAGCATCTGCAGGTCAAGGGCCGAAGCCTGAAGCTGATAGCCAGGAACAGGGTCACCCACAGACTGGGTGTGAGTGTGAAGATGGTCCTGATGGGCAGGAGGTGGACCCGCCAAATCCAGAGGAGGTGAAAACGCCTGAAGAAGGTGAAAAGCAATCACAGTGTTAAAAGAAGACACGTTGAAATGATGCAGGCTGCTCCTATGTTGGAAATTTGTTCATTAAAATTCTCCCAATAAAGCTTTACAGCCTTCTGCAAAAAAAAAAAAAAAA
B4: GAGE-3: cDNA highly related to GAGE, from MZ2-MEL.43 library (nucleic acid)
DNA: CTCATATTTCACACAGATGAGTTGGCGAGGAAGATCGACCTATTATTGGTCTAGGCCAATAATAGGTCGATCTTCCTCGCCAACTCATATTTCACACAGATGAATCTCAGTAGAGGAAAATCGACCTATTATTGGCCTAGACCAAGGCGCTATGTACAGCCTCCTGAAGTGATTGGGCCTATGCGGCCCGAGCAGTTCAGTGATGAAGTGGAACCAGCAACACCTGAAGAAGGGGAACCAGCAACTCAACGTCAGGATCCTGCAGCTGCTCAGGAGGGAGAGGATGAGGGAGCATCTGCAGGTCAAGGGCCGAAGCCTGAAGCTGATAGCCAGGAACAGGGTCACCCACAGACTGGGTGTGAGTGTGAAGATGGTCCTGATGGGCAGGAGATGGACCCGCCAAATCCAGAGGAGGTGAAAACGCCTGAAGAAGGTGAAAAGCAATCACAGTGTTAAAAGAAGGCACGTTGAAATGATGCAGGCTGCTCCTATGTTGGAAATTTGTTCATTAAAATTCTCCCAATAAAGCTTTACAGCCTTCTGCAAAGAAAAAAAAAAAA
B5: GAGE-2: cDNA highly related to GAGE, from MZ2-MEL.43 library (nucleic acid)
DNA: ACGCCAGGGAGCTGTGAGGCAGTGCTGTGTGGTTCCTGCCGTCCGGACTCTTTTTCCTCTACTGAGATTCATCTGTGTGAAATATGAGTTGGCGAGGAAGATCGACCTATCGGCCTAGACCAAGACGCTACGTAGAGCCTCCTGAAATGATTGGGCCTATGCGGCCCGAGCAGTTCAGTGATGAAGTGGAACCAGCAACACCTGAAGAAGGGGAACCAGCAACTCAACGTCAGGATCCTGCAGCTGCTCAGGAGGGAGAGGATGAGGGAGCATCTGCAGGTCAAGGGCCGAAGCCTGAAGCTCATAGCCAGGAACAGGGTCACCCACAGACTGGGTGTGAGTGTGAAGATGGTCCTGATGGGCAGGAGATGGACCCGCCAAATCCAGAGGAGGTGAAAACGCCTGAAGAAGGTGAAAAGCAATCACAGTGTTAAAAGAAGACACGTTGAAATGATGCAGGCTGCTCCTATGTTGGAAATTTGTTCATTAAAATTCTCCCAATAAAGCTTTACAGCCTTCTGCAAAGAAAAAAAAAAAA
B6: GAGE-5: cDNA highly related to GAGE, from MZ2-MEL.43 library (nucleic acid)
DNA: AGCTGTGAGGCAGTGCTGTGTGGTTCCTGCCGTCCGGACTCTTTTTCCTCTACTGAGATTCATCTGTGTGAAATATGAGTTGGCGAGGAAGATCGACCTATTATTGGCCTAGACCAAGGCGCTATGTACAGCCTCCTGAAGTGATTGGGCCTATGCGGCCCGAGCAGTTCAGTGATGAAGTGGAACCAGCAACACCTGAAGAAGGGGAACCAGCAACTCAACGTCAGGATCCTGCAGCTGCTCAGGAGGGAGAGGATGAGGGAGCATCTGCAGGTCAAGGGCCGAAGCCTGAAGCTGATAGCCAGGAACAGGGTCACCCACAGACTGGGTGTGAGTGTGAAGATGGTCCTGATGGGCAGGAGATGGACCCGCCAAATCCAGAGGAGGTGAAAACGCCTGAAGAAGGTGAAAAGCAATCACAGTGTTAAAAGAAGGCACGTTGAAATGATGCAGGCTGCTCCTATGTTGGAAATTTGTTCATTAAAATTCTCCCAATAAAGCTTTACAGCCTTCTGCAAAGAAAAAAAAAAAA

system: CTL 76/6; assay: TNF release / recognition by CTL 76/6 of COS cells cotransfected with GAGE cDNA and HLA-Cw6 cDNA; assay type: cell-based, human; conditions: COS cells transfected with cDNA together with HLA-Cw6 cDNA (FIG. 2, FIG. 6)
Protocol: Following preparation of the library described in Example 3, the cDNA was transfected into eukaryotic cells. The transfections, described herein, were carried out in duplicate. Samples of COS-7 cells were seeded, at 15,000 cells/well into tissue culture flat bottom microwells, in Dulbecco's modified Eagles Medium (“DMEM”) supplemented with 10% fetal calf serum. The cells were incubated overnight at 37° C., medium was removed and then replaced by 50 μl/well of DMEM medium containing 10% Nu serum, 400 μg/ml DEAE-dextran, and 100 μM chloroquine, plus 100 ng of the plasmids. […] As a result, cDNA for each of the HLA molecules which could present the antigen (A1, B37, Cw6) was used, separately, to cotransfect the cells. Specifically, one of 28 ng of the gene encoding HLA-A1 cloned into pCD-SRα, 50 ng of cDNA for HLA-B37 in pcDNA 1/Amp, or 75 ng of cDNA for HLA-Cw6 in pcDNAI-Amp, using the same protocols as were used for transfeclion with the library.
Transfection was carried out in duplicate wells, but only 500 pools of the HLA-Cw6 transfectants could be tested in single wells. Following four hours of incubation at 37° C., the medium was removed, and replaced by 50 μl of PBS containing 10% DMSO. This medium was removed after two minutes and replaced by 200 μl of DMEM supplemented with 10% FCS.
(§1) Following this change in medium, COS cells were incubated for 24-48 hours at 37° C. Medium was then discarded, and 1000-3000 cells of CTL clone 76/6 were added, in 100 μl of Iscove's medium containing 10% pooled human serum supplemented with 20-30 U/ml of recombinant IL-2. Supernatant was removed after 24 hours, and TNF content was determined in an assay on WEHI cells, as described by Traversari et al., Immunogenetics 35: 145-152 (1992), the disclosure of which is incorporated by reference.
The bacteria of the selected pool were cloned, and 600 clones were tested. Plasmid DNA was extracted therefrom, transfected into a new sample of COS cells in the same manner as described supra, and the cells were again tested for stimulation of CTL clone 76/6. Ninety-four positive clones were found. One of these, referred to as cDNA clone 2D6, was tested further. In a comparative test COS cells were transfected with cDNA clone 2D6 and the HLA-Cw6 cDNA, HLA-Cw6 cDNA alone, or cDNA 2D6 alone. Control cell lines MZ2-MEL F and MZ2-MEL F^+ were also used. TNF release into CTL supernatant was measured by testing it on WEHI cells, as referred to supra. The number of surviving WEHI cells was measured by optical density after incubation of the cells with MTT.
To assess whether the change at position 2 affected the antigenicity of the peptide, cDNA of the 6 GAGE cDNAs were individually transfected into COS cells together with the cDNA of HLA-Cw6, and the transfectants were tested for recognition by CTL 76/6 as described, supra. Only GAGE-1 and GAGE-2 transfected cells were recognized, showing that the modified peptide encoded by GAGE-3, 4, 5 and 6 was not antigenic in the context of this experiment.

Molecule | recognition by CTL 76/6 (TNF release)
B1 | recognized
B2 | not antigenic
B3 | not antigenic
B4 | not antigenic
B5 | recognized
B6 | not antigenic

same assay, conditions: COS cells transfected with cDNA together with HLA-Cw6 cDNA (FIG. 2, FIG. 6); listed as cDNA clone 2D6

Molecule | recognition by CTL 76/6 (TNF release)
B1 | stimulated TNF release

system: CTL 22/23; assay: TNF production by CTL 22/23 on COS-7 cells cotransfected with HLA-A29 and GAGE cDNA; assay type: cell-based, human; conditions: COS-7 cells transfected with HLA-A29 and the cDNA, 24 hours (FIG. 7)
Protocol: as §1
Once positive HLA-A29 clones were isolated, these were transfected into COS-7 using the DEAE-dextran chloroquine method out supra. In brief, 1.5×10^4 COS-7 cells were treated with 50 ng of plasmid pcDNA-I/Amp containing HLA-A29, and 100 ng of cDNA containing cDNA for one of the GAGE sequences mentioned supra, or one of the prior art MAGE or BAGE sequences in plasmid pcDNAα-I/Amp or pcDSR-α, respectively. The transfectants were then incubated for 24 hours at 37° C.
The transfectants were then tested for their ability to stimulate TNF production by CTLs, using the assay explained at the end of example, 4, supra.

Molecule | stimulation of TNF production by CTL clone 22/23
B1 | do not stimulate CTL clone 22/23
B2 | high levels of TNF production
B3 | high levels of TNF production
B4 | high levels of TNF production
B5 | do not stimulate CTL clone 22/23
B6 | high levels of TNF production
